The values that follow come from the supplement of paper PMC10724198.

The subject of the series is Saccharomyces cerevisiae. Kind of series: protein stability index of tFT-peptide fusion (C-terminal peptide) (PSI (0-1 scale)); higher = more stable (slower turnover). The conditions noted are these: temperature: 30 C. On the procedure: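 MPS profiling in S. cerevisiae of the yeast C-terminome library: the last 12 aa of each annotated ORF are fused to the C-terminus of a sfGFP-mCherry timer, after a GGGS linker. Cells are FACS-sorted into 8 mCherry/sfGFP bins and deep-sequenced. PSI runs from 0 (unstable) to 1 (stable); wild type and das1Δ backgrounds, two technical replicates each.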

The mark [1] stands for this setting: genetic background: das1 deletion.

± gives the standard deviation of the averaged measurements.

Take STDEKTSENETL [YPR071W C-terminal 12 aa]: the protein stability index by setting is: under setting [1], 0.6746 ± 0.0056; (genetic background: wild type) 0.656 ± 0.024.
Consider STICRDIILIPN [CHK1 C-terminal 12 aa], for which the protein stability index reads like this: under setting [1], 0.688 ± 0.03; (genetic background: wild type) 0.6527 ± 0.0013.
The corresponding values for STKFEEDQVAPL [ICP55 C-terminal 12 aa] are 0.679 ± 0.007 and 0.686 ± 0.029.
As for STSDSENFMQQH [RPI1 C-terminal 12 aa], the protein stability index is, setting by setting: under setting [1], 0.705 ± 0.013; (genetic background: wild type) 0.729 ± 0.049.
The corresponding values for SVFIASLLLAII [FLO1 C-terminal 12 aa] are 0.31 ± 0.0059 and 0.323 ± 0.021.
The corresponding values for SVLTGGAVWMLF [DFG5 C-terminal 12 aa] are 0.7186 ± 0.0037 and 0.652 ± 0.013.
The corresponding values for TAIAHRAYIQLK [RSM7 C-terminal 12 aa] are 0.709 ± 0.035 and 0.685 ± 0.033.
In the case of TALLIDNILTCK [MRM1 C-terminal 12 aa], the protein stability index is, setting by setting: under setting [1], 0.7 ± 0.021; (genetic background: wild type) 0.694 ± 0.048.
For TALLVSYCHLCV [YMR122C C-terminal 12 aa] the same measures were 0.625 ± 0.0077 and 0.6243 ± 0.0048.
As for TAREKKNEMFSF [YCL023C C-terminal 12 aa], the protein stability index came out at 0.69596 ± 0.00065 under setting [1] and 0.711 ± 0.06 (genetic background: wild type).
Turning to TASTSNSRNQTM [SPO71 C-terminal 12 aa], the protein stability index is 0.701 ± 0.03 under setting [1] and 0.687 ± 0.038 (genetic background: wild type).
The sequence TASYLKDAVYLH [ATP6 C-terminal 12 aa] displayed a protein stability index under setting [1] of 0.699 ± 0.031 and a protein stability index (genetic background: wild type) of 0.703 ± 0.025.
For TCVYKKPERHKA [TCM62 C-terminal 12 aa] the same measures were 0.707 ± 0.03 and 0.701 ± 0.024.
TDNTVDKFDFYK [RPT3 C-terminal 12 aa] came in with a protein stability index under setting [1] of 0.711 ± 0.016 and a protein stability index (genetic background: wild type) of 0.71 ± 0.013.
For TDVVLCARLADD [RIB7 C-terminal 12 aa] the same measures were 0.676 ± 0.014 and 0.7 ± 0.038.
For TEFGITKENLGE [TOG1 C-terminal 12 aa], the protein stability index runs as follows: under setting [1], 0.697 ± 0.03; (genetic background: wild type) 0.691 ± 0.032.
Take “TEIPYKPFTRQP [YOR293C-A C-terminal 12 aa]”: the protein stability index stood at 0.724 ± 0.0085 under setting [1] and 0.739 ± 0.013 (genetic background: wild type).
For TFHTVGDRYEMA [YPR127W C-terminal 12 aa] the same measures were 0.7019 ± 0.006 and 0.69654 ± 0.00054.
For TGKVFTRTNQSK [YFL019C C-terminal 12 aa] the same measures were 0.71 ± 0.035 and 0.698 ± 0.011.
For THNEGSSVKKMH [SLC1 C-terminal 12 aa] the same measures were 0.694 ± 0.045 and 0.674 ± 0.037.
On to THPAGTLENATQ [YIL102C C-terminal 12 aa], for which the protein stability index was found to be 0.694 ± 0.022 under setting [1] and 0.742 ± 0.017 (genetic background: wild type).
The corresponding values for TISNPFGDHNKI [LSB5 C-terminal 12 aa] are 0.727 ± 0.034 and 0.738 ± 0.099.
For TKAVHINLSLDN [ALD2 C-terminal 12 aa] the same measures were 0.69 ± 0.0043 and 0.702 ± 0.015.
The corresponding values for TKEYMDSIRSAK [VPS45 C-terminal 12 aa] are 0.687 ± 0.023 and 0.766 ± 0.099.
As for TKKSTGKGPASS [BOL3 C-terminal 12 aa], the protein stability index reads like this: under setting [1], 0.7 ± 0.033; (genetic background: wild type) 0.675 ± 0.03.
On to TLFCLLFRFIIF [YIP5 C-terminal 12 aa], for which the protein stability index is, setting by setting: under setting [1], 0.265 ± 0.0053; (genetic background: wild type) 0.2739 ± 0.001.
For TLGEVINELNNK [VAM6 C-terminal 12 aa] the same measures were 0.7226 ± 0.0022 and 0.676 ± 0.011.
For TLHLVLRLRGGN [UBI4 C-terminal 12 aa] the same measures were 0.665 ± 0.013 and 0.687 ± 0.067.
TLSYIRVHKLVK [TYC1 C-terminal 12 aa] registered a protein stability index under setting [1] of 0.647 ± 0.019 and a protein stability index (genetic background: wild type) of 0.493 ± 0.015.
For “TMVERRVSFTAQ [YER119C-A C-terminal 12 aa]” the same measures were 0.73 ± 0.031 and 0.711 ± 0.022.
TNIIRETLKSLN [ATP22 C-terminal 12 aa] came in with a protein stability index under setting [1] of 0.786 ± 0.1.
The sequence TNNRHKYQNGRK [YLL032C C-terminal 12 aa] had a protein stability index under setting [1] of 0.7 ± 0.053 and a protein stability index (genetic background: wild type) of 0.664 ± 0.0094.
Regarding TNPHQADASPKK [MPE1 C-terminal 12 aa], the protein stability index reads like this: under setting [1], 0.71 ± 0.023; (genetic background: wild type) 0.702 ± 0.021.
The corresponding values for TQKLNEKSSKES [ATC1 C-terminal 12 aa] are 0.715 ± 0.031 and 0.644 ± 0.036.
Consider “TSASSNFDDSFS [YCR018C-A C-terminal 12 aa]”, for which the protein stability index is, setting by setting: under setting [1], 0.6885 ± 0.0016; (genetic background: wild type) 0.717 ± 0.062.
With TSGRYASYRICM [RPB5 C-terminal 12 aa], the protein stability index runs as follows: under setting [1], 0.6941 ± 0.0011; (genetic background: wild type) 0.664 ± 0.011.
For TSIESALITLDL [MER1 C-terminal 12 aa] the same measures were 0.682 ± 0.016 and 0.695 ± 0.032.
The corresponding values for TSPRAINPKRSA [YDL114W C-terminal 12 aa] are 0.695 ± 0.021 and 0.703 ± 0.02.
The sequence TSSFTEAVIKRL [IDH2 C-terminal 12 aa] registered a protein stability index under setting [1] of 0.696 ± 0.011 and a protein stability index (genetic background: wild type) of 0.6628 ± 0.0025.
For TSSNPKSHQYSK [ROF1 C-terminal 12 aa], the protein stability index by setting is: under setting [1], 0.717 ± 0.0022; (genetic background: wild type) 0.689 ± 0.029.
For TSTNTIYATVTI [DSE2 C-terminal 12 aa] the same measures were 0.688 ± 0.018 and 0.6656 ± 0.001.
For TTRETPLPPIPA [TYW1 C-terminal 12 aa] the same measures were 0.609 ± 0.012 and 0.642 ± 0.015.
In the case of TTTEVETETAKQ [YPR063C C-terminal 12 aa], the protein stability index was determined as 0.679 ± 0.011 under setting [1] and 0.7 ± 0.027 (genetic background: wild type).
The corresponding values for TTWKTTCKIFGE [YBL055C C-terminal 12 aa] are 0.693 ± 0.019 and 0.712 ± 0.008.
The corresponding values for TVETLLKLFTKS [SLD7 C-terminal 12 aa] are 0.6879 ± 0.0025 and 0.69379 ± 0.00044.
For “TVRKGVYMRLYY [YNL146C-A C-terminal 12 aa]” the same measures were 0.668 ± 0.0024 and 0.634 ± 0.036.
For TYYRRRATANSL [YMR155W C-terminal 12 aa], the protein stability index came to 0.6958 ± 0.0045 under setting [1] and 0.676 ± 0.011 (genetic background: wild type).
The corresponding values for VACCGCNMTVAY [YIL058W C-terminal 12 aa] are 0.528 ± 0.015 and 0.533 ± 0.029.
For VANTTNMNMNLM [DIA1 C-terminal 12 aa], the protein stability index under setting [1] is 0.6954 ± 0.0035 and the protein stability index (genetic background: wild type) came out at 0.737 ± 0.027.
As to VDKYEAGMSITK [SWC4 C-terminal 12 aa], the protein stability index under setting [1] was determined as 0.688 ± 0.0058 and the protein stability index (genetic background: wild type) stood at 0.671 ± 0.03.
